Results: publication PMC10397247

T1: O7
T1 chain: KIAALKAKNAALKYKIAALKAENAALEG

T2: O9
T2 chain: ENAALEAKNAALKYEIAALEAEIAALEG

T3: O15
T3 chain: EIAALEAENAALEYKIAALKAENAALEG

T4: O14
T4 chain: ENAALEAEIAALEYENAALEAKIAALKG

T5: O16
T5 chain: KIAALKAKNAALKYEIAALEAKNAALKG

T6: O6
T6 chain: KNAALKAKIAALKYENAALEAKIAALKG

T7: O10
T7 chain: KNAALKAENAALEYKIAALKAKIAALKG

T8: O8
T8 chain: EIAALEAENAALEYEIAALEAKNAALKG

T9: O11
T9 chain: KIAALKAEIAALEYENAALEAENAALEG

T10: O4
T10 chain: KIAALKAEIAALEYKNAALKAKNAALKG

T11: O3
T11 chain: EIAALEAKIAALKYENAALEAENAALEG

T12: O12
T12 chain: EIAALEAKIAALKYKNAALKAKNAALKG

T13: O5
T13 chain: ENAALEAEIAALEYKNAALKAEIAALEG

T14: O13
T14 chain: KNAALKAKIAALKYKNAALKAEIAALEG

T15: O2
T15 chain: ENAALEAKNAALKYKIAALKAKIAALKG

T16: P7SH
T16 chain: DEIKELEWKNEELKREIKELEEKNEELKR

T17: P6SH
T17 chain: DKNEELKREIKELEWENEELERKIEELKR

T18: P5SH
T18 chain: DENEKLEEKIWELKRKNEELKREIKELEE

T19: P4SH
T19 chain: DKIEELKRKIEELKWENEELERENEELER

T20: P8SH
T20 chain: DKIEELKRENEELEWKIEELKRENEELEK


Tests used:
[1] = molecular target: T1, O7; experiment: two-hybrid library CC0; details: mean of both orientations;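 further: natural log of median RNA to DNA barcode read ratio; higher means stronger binding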
[2] = molecular target: T2, O9; experiment: two-hybrid library CC0; details: mean of both orientations;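 further: natural log of median RNA to DNA barcode read ratio; higher means stronger binding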
[3] = molecular target: T3, O15; experiment: two-hybrid library CC0; details: mean of both orientations;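 further: natural log of median RNA to DNA barcode read ratio; higher means stronger binding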
[4] = molecular target: T4, O14; experiment: two-hybrid library CC0; details: mean of both orientations;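 further: natural log of median RNA to DNA barcode read ratio; higher means stronger binding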
[5] = molecular target: T5, O16; experiment: two-hybrid library CC0; details: mean of both orientations
[6] = molecular target: T6, O6; experiment: two-hybrid library CC0; details: mean of both orientations
[7] = molecular target: T7, O10; experiment: two-hybrid library CC0; details: mean of both orientations
[8] = molecular target: T8, O8; experiment: two-hybrid library CC0; details: mean of both orientations
[9] = molecular target: T9, O11; experiment: two-hybrid library CC0; details: mean of both orientations
[10] = molecular target: T10, O4; experiment: two-hybrid library CC0; details: mean of both orientations
[11] = molecular target: T11, O3; experiment: two-hybrid library CC0; details: mean of both orientations
[12] = molecular target: T12, O12; experiment: two-hybrid library CC0; details: mean of both orientations
[13] = molecular target: T13, O5; experiment: two-hybrid library CC0; details: mean of both orientations
[14] = molecular target: T14, O13; experiment: two-hybrid library CC0; details: mean of both orientations
[15] = molecular target: T15, O2; experiment: two-hybrid library CC0; details: mean of both orientations
[16] = molecular target: T16, P7SH; experiment: two-hybrid library CCNG1
[17] = molecular target: T17, P6SH; experiment: two-hybrid library CCNG1
[18] = molecular target: T18, P5SH; experiment: two-hybrid library CCNG1
[19] = molecular target: T19, P4SH; experiment: two-hybrid library CCNG1
[20] = molecular target: T20, P8SH; experiment: two-hybrid library CCNG1

Binder	interaction score [1]	interaction score [2]	interaction score [3]	interaction score [4]	interaction score [5]	interaction score [6]	interaction score [7]	interaction score [8]	interaction score [9]	interaction score [10]	interaction score [11]	interaction score [12]	interaction score [13]	interaction score [14]	interaction score [15]	interaction score [16]	interaction score [17]	interaction score [18]	interaction score [19]	interaction score [20]
KNAALKAENAALEYKIAALKAKIAALKG [O10]	-2.72	1.47	-2.76	-2.57	-2.56	-2.76	-2.67	-2.5	-2.65	-2.63	-2.6	-2.82	-1.82	-2.76	-1.28	–	–	–	–	–
DKIEELKRKIEELKWENEELERENEELER [P4SH]	–	–	–	–	–	–	–	–	–	–	–	–	–	–	–	-1.17	-0.892	-0.643	-0.1	-0.776
